{"source": "paper PMC10454665", "about": "“Structural Analysis of Plasmodium falciparum Hexokinase Provides Novel Information about Catalysis Due to a Plasmodium-Specific Insertion” (International Journal of Molecular Sciences, 2023)", "molecular_target": "the molecule itself", "experiment": "SEC; HiLoad 16/60 Superdex 200 on an AKTA pure system after Talon purification; PfHK eluted at ~65 mL; mass estimated from a calibration curve", "data": [{"protein": "Plasmodium falciparum hexokinase (enzyme, Hexokinase of Plasmodium falciparum, PlasmoDB PF3D7_0624000, gene ordered codon-optimised for E. coli and cloned into pET30a-c(+); the model holds I25-N486 (subunit A) and I23-I489 (subunit B); The PlasmoDB id is that of strain 3D7; also called PfHK; P. falciparum hexokinase) MSEYDIAKNDVTYTKLDTIECDIPINEELSWRINKFVNQLRISYSTLEEFVDNFVYELKKGLEAHRKHPNLWIPHECSFKMLDSCIANIPTGQEKGTYYAIDFGGTNFRAVRASLDGKGKIKRDQETYSLKFTGSYSHEKGLLDKHATASQLFDHFAERIKYIMGEFNDLDNKEVKSVGFTFSFPCTSPSINCSILIDWTKGFETGRATNDPVEGRDVCKLMNDAFVRAAIPAKVCCVLNDAVGTLMSCAYQKGRGTPPCYIGIILGTGSNGCYYEPEWKKYKYAGKIINIEFGNFDKDLPTSPIDLVMDWYSANRSRQLFEKMISGAYLGEIVRRFMVNVLQSACSKKMWISDSFNSESGSVVLNDTSKNFEDSRKVAKAAWDMDFTDEQIYVLRKICEAVYNRSAALARGTIAAIAKRIKIIEHSKFTCGVDGSLFVKNAWYCKRLQEHLKVILADKAENLIIIPADDGSGKGAAITAAVIALNADIPQLP", "values": [{"measurement": "stoichiometry N", "value": 4}]}]}
